{
  "source": "patent US20130209454A1",
  "about": "(CALIFORNIA INSTITUTE OF TECHNOLOGY, published 2013)",
  "binders": {"B1": {"name": "NIH45-46 IgG (antibody, V domains shown)", "VH": "QVRLSQSGGQMKKPGESMRLSCRASGYEFLNCPINWIRLAPGRRPEWMGWLKPRGGAVNYARKFQGRVTMTRDVYSDTAFLELRSLTSDDTAVYFCTRGKYCTARDYYNWDFEHWGRGAPVTVSS", "VL": "EIVLTQSPATLSLSPGETAIISCRTSQSGSLAWYQQRPGQAPRLVIYSGSTRAAGIPDRFSGSRWGADYNLSISNLESGDFGVYYCQQYEFFGQGTKVQVDI"}, "B2": {"name": "NIH45-46 IgG (antibody, V domains shown)", "VH": "B1 VH", "VL": "B1 VL"}},
  "assay_in_all_cases": "cell-based or functional assay",
  "key": {"[1]": {"molecular_target": "HIV-1 Env of strain 3016.v5.c45 (HIV-1)"}, "[2]": {"molecular_target": "HIV-1 Env of strain C2101.c01 (HIV-1)"}, "[3]": {"molecular_target": "HIV-1 Env of strain Du156.12 (HIV-1)"}, "[4]": {"molecular_target": "HIV-1 Env of strain ZM249M.PL1 (HIV-1)"}, "[5]": {"molecular_target": "HIV-1 Env of strain ZM135M.PL10a (HIV-1)"}, "[6]": {"molecular_target": "HIV-1 Env of strain ZM53M.PB12 (HIV-1)"}, "[7]": {"molecular_target": "HIV-1 Env of strain ZM214M.PL15 (HIV-1)"}, "[8]": {"molecular_target": "HIV-1 Env of strain ZM197M.PB7 (HIV-1)"}, "[9]": {"molecular_target": "HIV-1 Env of strain ZM109F.PB4 (HIV-1)"}, "[10]": {"molecular_target": "HIV-1 Env of strain CAP45.2.00.G3 (HIV-1)"}, "[11]": {"molecular_target": "HIV-1 Env of strain CAP210.2.00.E8 (HIV-1)"}, "[12]": {"molecular_target": "HIV-1 Env of strain Du172.17 (HIV-1)"}, "[13]": {"molecular_target": "HIV-1 Env of strain TRO.11 (HIV-1)"}, "[14]": {"molecular_target": "HIV-1 Env of strain AC10.0.29 (HIV-1)"}, "[15]": {"molecular_target": "HIV-1 Env of strain SC422661.8 (HIV-1)"}, "[16]": {"molecular_target": "HIV-1 strain ZM53M.PB12 envelope (gp120) (HIV-1)"}, "[17]": {"molecular_target": "HIV-1 strain 231965.c01 envelope (gp120) (HIV-1)"}, "[18]": {"molecular_target": "HIV-1 strain CAP45.2.00.G3 envelope (gp120) (HIV-1)"}, "[19]": {"molecular_target": "HIV-1 strain TRO.11 envelope (gp120) (HIV-1)"}, "[20]": {"molecular_target": "HIV-1 strain AC10.0.29 envelope (gp120) (HIV-1)"}, "[21]": {"molecular_target": "HIV-1 strain QH0692.42 envelope (gp120) (HIV-1)"}, "[22]": {"molecular_target": "HIV-1 strain T257-31 envelope (gp120) (HIV-1)"}, "[23]": {"molecular_target": "HIV-1 strain ZM214M.PL15 envelope (gp120) (HIV-1)"}, "[24]": {"molecular_target": "HIV-1 strain SC422661.8 envelope (gp120) (HIV-1)"}},
  "data": [
    {"binder": "B1", "values": [
      {"measurement": "neutralization IC50", "setting": "[1]", "value": "> 30", "unit": "µg/mL"},
      {"measurement": "neutralization IC50", "setting": "[2]", "value": 12.8, "unit": "µg/mL"},
      {"measurement": "neutralization IC50", "setting": "[3]", "value": 0.01, "unit": "µg/mL"},
      {"measurement": "neutralization IC50", "setting": "[4]", "value": 0.02, "unit": "µg/mL"},
      {"measurement": "neutralization IC50", "setting": "[5]", "value": 0.36, "unit": "µg/mL"},
      {"measurement": "neutralization IC50", "setting": "[6]", "value": 0.65, "unit": "µg/mL"},
      {"measurement": "neutralization IC50", "setting": "[7]", "value": 0.05, "unit": "µg/mL"},
      {"measurement": "neutralization IC50", "setting": "[8]", "value": 0.14, "unit": "µg/mL"},
      {"measurement": "neutralization IC50", "setting": "[9]", "value": 0.22, "unit": "µg/mL"},
      {"measurement": "neutralization IC50", "setting": "[10]", "value": "> 50", "unit": "µg/mL"},
      {"measurement": "neutralization IC50", "setting": "[11]", "value": "> 50", "unit": "µg/mL"},
      {"measurement": "neutralization IC50", "setting": "[12]", "value": "> 50", "unit": "µg/mL"},
      {"measurement": "neutralization IC50", "setting": "[13]", "value": 1, "unit": "µg/mL"},
      {"measurement": "neutralization IC50", "setting": "[14]", "value": 0.9, "unit": "µg/mL"},
      {"measurement": "neutralization IC50", "setting": "[15]", "value": 0.06, "unit": "µg/mL"}
    ]},
    {"binder": "B2", "values": [
      {"measurement": "neutralization IC80", "setting": "[16]", "value": 0.61, "unit": "µg/mL"},
      {"measurement": "neutralization IC80", "setting": "[17]", "value": 0.126, "unit": "µg/mL"},
      {"measurement": "neutralization IC50", "setting": "[18]", "value": "> 50", "unit": "µg/mL"},
      {"measurement": "neutralization IC50", "setting": "[19]", "value": 1.9, "unit": "µg/mL"},
      {"measurement": "neutralization IC50", "setting": "[20]", "value": 0.9, "unit": "µg/mL"},
      {"measurement": "neutralization IC50", "setting": "[21]", "value": 0.7, "unit": "µg/mL"},
      {"measurement": "neutralization IC50", "setting": "[22]", "value": 0.5, "unit": "µg/mL"},
      {"measurement": "neutralization IC50", "setting": "[23]", "value": 0.5, "unit": "µg/mL"},
      {"measurement": "neutralization IC50", "setting": "[24]", "value": 0.05, "unit": "µg/mL"}
    ]}
  ]
}
